# B1: TPR t1 (parent)
# chain: GACCAAUCUGCCCUCAGAGCUCGAGAACAUCUUCGGAUGCAGAGGAGGCAGGCUUCGGUGGCGCGAUAGCGCCAACGUCCUCAACCUCCAAUGCAUCCCACCACAUGAUGAUGCCUGAAGAGCCUUGGUUUUUUG
# Variants of: B1
# Assay: polymerase ribozyme fitness, log enrichment relative to wild type (log ratio); higher = more active; in vitro selection for triplet polymerase activity
# Outline: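 Mutant libraries of each subunit of a heterodimeric triplet polymerase ribozyme were built by PCR and transcribed. Each library went through one round of in vitro selection in triplicate: annealing with biotinylated primer, partner subunit and triplets, frozen incubation at −7 °C, gel excision of extended constructs, streptavidin-bead capture and RT-PCR. Input and output libraries were Illumina-sequenced; only genotypes with ≥10 input reads and ≥1 read per output were kept. Fitness is log2(genotype enrichment/wild-type enrichment), using inverse-variance-weighted replicate averages.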
row,Variant,polymerase ribozyme fitness (log ratio)
1,GACCAAUCUGCCCUCAGAGCUCGAGGACAUCUUCGGAUGCAGAGAAGGCAGGCUUCGGUGGCGCGAUAGCGCCAACGGCCUCAACCUCCAAUGCAUCCCACCACAUGAUGAUGCCUGAAGAGCUUUGGGUUUUUG [A26G G45A U78G C124U U129G],-4.5
2,GACCAAUGUGCCCUCAGAGCUCGAGAACACCUUCGGAUGCAGAGGAGGCAGGCUUCGGUGGCGCGAUAGCGCCAACGUCCUCAACCUCCAAUGCAUCCCACCACAUGAUGAUGCCUGAAGAGCCUUGGUUUUUUG [C8G U30C],-2.51
3,GACCAAUCUGCCCUCAGAGCUCGAGAACAUCUUCGGAUGCAGAGGAGGCAGGGUUCGGUGGCGCGAUAGCGCCAACGUCCUCAACCUCCAAUGCAUCCCACCACAUGAUGAUGCCUGAUGAGCCUUCGUUUUUUG [C53G A119U G127C],-1.2
4,GACCAAUCUGCCCUCAGAGCUCGAGAACAUCUUCGGAUGCAGAGGAGGCAGGCUUCGGUGACGCGAUAGGGCCAACGUCCUCAACCUCCAAUGCAUCCCACCACAUGAUGAUGCCUGAAGAGCCUUGGUUUUUUG [G61A C70G],-4.02
5,GACCAAUCUGCCCUCAGAGCUCGAGAACAUCUUCGGAUGCAGAGGAGGCAGGCUUCGGUGGCGCGAUAGCGACAACGUCCUCAACCUCCAAUGCAUCCCACCUCAUGAUGAUGCCUGAAGAGCGUUGGUUCUUUG [C72A A103U C124G U131C],-2.63
6,GACCAAUCUGCCCUCAGAGCUCGAGAACAUCUUCGGAUGCAGAGGAGGCAGGCUUCGGUGGCGCGAUAGCGCCAACGUCAUCAACCUCCAAUGCAUCCCACCACAUGAUGAUGCCUGAAGAGCCUUGGAUUUUUG [C80A U129A],-3.77
7,GACCAAUCUGCCCUCAGAGCUCGAGAACAUCUUCGGAUGCAGAGGAGGCAGGCUUCGGUGGCGCGAUAGCGCCAACGUCCUCAUCCUCCAAUGCAUCCCACCACAUGAUGAUGCAUGAAGAGCCUUGGUUUUUUG [A84U C115A],-0.457
8,GACUAAUCUGCCCUCAGAGCUCGUGAACAUCUUCGGAUGCAGAGGAGGCAGGCUUCGGUGGCGCGAUAGGGCCAACGUCCUCAACCUCCAAGGCAUCCCACCACAUGAUGAUGCCCGAACAGCCUUGGUUUUUUG [C4U A24U C70G U92G U116C G120C],-6.86
9,GACCAAUCUGCCCUCAGAGCUCGAGAACAUCUUCGGAUGCAGAGGAGGCAGGCUUCGGUGGAGCGAUAGCGCCAACGUCCUCAACCUCCAAUGCAUCCCACCACAUGAUGAUGCCUGAAGAGCCUUGGUUUUUUU [C62A G135U],-1.52
10,GACCAAUCUGCCCUCAGAGCUCGAGAUCAUCUUCGGAUGCAGAGGAGGCAGGAUUCGGUGGCGCGAUAGCGUCAACGUCCUCAACCUCCAAUGCAUCCCACCACAUGAUGAUGCCUGAAGAGCCUUGGUUUUUUG [A27U C53A C72U],-3.4
11,GACCCAUCUGCCCUCAGAGCUCGAGAACAUCUUCGGAUGCAGAGGAGGCAGGCUUCGGUGGCGCGAUAGCGCCAACGCCCUCAACCUCCAAUGCAUCCCACCACAUGAUGAUGCCUGAAGAGCCUUCGCUUUUUG [A5C U78C G127C U129C],-2.19
12,GACCAAUCUGCCCUCAGAGCUCGAGAACAUCUUCGGAUGCAGAGGAGGCAGGCUUCGGUGGCGCGAUAGAGCCAACGUCCUCAACCUCCAAUGCAUCCCACCACAUGAUGAUGCCUGAAGAGCCUUGGUGUUUUG [C70A U130G],-2.49
13,GACCAUUCUGCCCUCAGAGCUCGAGAACAUCUUCGGGUGCAGAGGAGGCAGGCUUCGGUGGCGCGAUAGCACCAACGUCCUCAACCUCCAAUGCAUCCCACCACAUGAUGAUGCCUGAAGAGCCUUGGUUUUUUG [A6U A37G G71A],-0.537
14,GACCAAUCUGCCCUCAGAGGUCGAGAACAUCUUCGUAUGCAGAGGAGGCAGGCUUCGGUGGCGCGAUAGCGCCAACGUCCUCAACCUCCAACGCAUCCCAACACAAGAAGAUGCCUGAAGAGCCUUGGUUUUUUG [C20G G36U U92C C101A U106A U109A],-3.02
15,GACCAAUCUGCCCUCAGAGCUCGAGAACAUCUUCGGAUGCAGAGGAGGCAGGCUUCGGUGCCGCGCUAGCGCCAACGUCCUCAACCUCCAAUGCAUCCCACCACAUGAUGAUGCCUGAAGAGCCUUGGUUUUUUU [G61C A66C G135U],-4.47
16,GACCAAUCUGCCCUCAGAGCUCGAGAACAUCUUCGGAUGCAGAGGAGGCAGGCUUCGGUGGCGCGAUAACGCCAACGUCCUCAACCUCCAAUGCAUCCCACCACAUGAUAAUGCCUGAAGAGCCUUGGUUUUUUG [G69A G110A],-3.77
17,GACCAAUCUGCCCUCAGAGCUCGAGAACAUCUUCGAAUGCAGAGGAGGCAGGCUUCGGUGGCGCGAUAGCGUCAACGUCCUCAAGCUCUAAUGUAUCCCACCACAUGAUGAUGCCUGAAGAGCCUUGGUUUUUUG [G36A C72U C85G C89U C94U],-2.78
18,GACCAAUCUGCCCUCAGAGCUCGAGAACAUCUUCGGAUGCAGAGGAGGCAGGCUUCGGCGGCGCGAUAGCGCCAACGUCCUCAACCUCCAAUGCAUCCCACCACAUGACGAUGACUGAAGAGCCUUGGUUUUUUG [U59C U109C C114A],-6.67
19,GACCAAUCUGCCGUCAGAGCUCGAGAACAUCUUCGGAUGCAGAGGAGGCGGGCUUCGGUGGCGCGAUAGCACCAACGUCCUCAACCUCCAAUGCAUCCCACCACAAGAUGAUGCCUGAAGAGCAUUUGUUUUUUG [C13G A50G G71A U106A C124A G127U],-0.731
20,GACCAAUCUGCCCUCAGAGCUCGAGAACAUCUUCGGAUGCAGAGGAGGCAGGCUUCGGUGGCGCGAUAGCGCCAACGUCCUCAACCUCCACUGCAUCCCACCACAUGAUGAUGCCUGAAGAGCCUUGGUUUUUUG [A91C],-1.4
21,GACCAAUCUGCCCUCAGAGCUCGAGAACAUCUUCGGAUGCAGAGGAGGCAGGCUUCGGUGGCGCGAUAGCGCCAACGUCCUCAACCUCCAAUGCAUCCCACCACAUGAUGAUGCCUGAAGCGCCUAGGUUUUUUG [A121C U126A],0.358

# From the RNAGym collection of RNA variant scans (doi:10.1073/pnas.2313332121)
